Assay results published in patent US20030219436A1.

Assays:
[1] = target: ligand(s) that bind to CD83, on mouse cells (PBMC monocytes, lymph node lymphocytes, splenocytes); assay: flow cytometry on mouse splenocytes
[2] = target: ligand(s) that bind to CD83, on human peripheral blood cells (monocytes, some lymphocytes); assay: flow cytometry on fresh human PBMC, biotinylated CD83Ig + PE streptavidin
[3] = target: ligand(s) that bind to CD83, on mouse cells (PBMC monocytes, lymph node lymphocytes, splenocytes); assay: flow cytometry on mouse lymph node lymphocytes
[4] = target: ligand(s) that bind to CD83, on mouse cells (PBMC monocytes, lymph node lymphocytes, splenocytes); assay: flow cytometry on mouse PBMC

Row | percent of cells bound (non-T cell population of splenocytes) [1] | percent of cells bound (CD3+ cells, lymphocyte gate) [2] | percent of cells bound (CD3- cells, lymphocyte gate) [2] | percent of cells bound (larger cell scatter gate, monocytes) [2] | percent of cells bound (lymphocytes from lymph nodes) [3] | percent of cells bound (monocytes in peripheral blood) [4] | Molecule
1 | 15% | < 1% | 4% | > 75% | < 5% | 90% | human CD83-hIgG1 fusion protein (extracytoplasmic domain of human CD83 with a human IgG1 tail) (Fc fusion)
2 | 15% | – | – | – | < 5% | 90% | human CD83 murine Ig fusion protein (human CD83 extracellular domain upstream of the murine IgG2a Fc domain) (Fc fusion) MSRGLQLLLLSCAYSLAPATPEVKVACSEDVDLPCTAPWDPQVPYTVSWVKLLEGGEERMETPQEDHLRGQHYHQKGQNGSFDAPNERPYSLKIRNTTSCNSGTYRCTLQDPDGQRNLSGKVILRVTGCPAQRKEETFKKYRAERSEPRGPTIKPCPPCKCPAPNSAGTSSVFIFPPKIKDVLMISLSPIVTCVVVDVSEDDPDVQISWFVNNVEVHTAQTQTHREDYNSTLRVVSALPIQHQDWMSGKEFKCKVNNKDLPAPIERTISKPKGSVRAPQVYVLPPPEEEMTKKQVTLTCMVTDFMPEDIYVEWTNNGKTELNYKNTEPVLDSDGSYFMYSKLRVEKKNWVERNSYSCSVVHEGLHNHHTTKSFSRTPGK
